What follows are sequences tested on MS2 coat protein (assay: apparent KD of MS2 coat protein; higher = weaker reporter binding). Conditions: Eterna round: R107; input ligand: theophylline 20 uM.
Experimental: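 RNA-MaP round R107: designed RNA switches with theophylline, tryptophan, arginine or FMN aptamers are transcribed on-chip within common flanks. They are titrated with SNAP-549-labelled MS2 coat protein in RNA-MaP buffer (100 mM Tris pH 7.5, 80 mM KCl, 4 mM MgCl2), without ligand or with the indicated ligand. Median apparent KD per design.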

Sequence	apparent KD of MS2 coat protein [nM]
AAUAAUAACAUGGGUGCACGAGUGGCAUAACGAGGACCGGUACGGCCGCCACUCGAACAUGAGGAUCACCCAUGUAGCCACUCGA [M'-T'-T-MS2-T'' - Design 4]	102
GACCUUAUCUGAAGGAGCGAGGUAAAUAGGGAUAGGAACAUGAGGAUCACCCAUGUGCGGCCUCAGGUAGGUCGCAGAUGAGAUU [Exclusion Arginine B GF28]	103
GCUGUUGCGGUGAGGUAUCCGGCUGUGGAAGGAGCGCGGAAGGCCGCAGGUAGGUCGCCACAUGAGGAUCACCCAUGUCGAUAUA [Aninati]	80.6
GUGGAGACCUCGGCCGCCACUCUCCAUGAGGAUCUCCCAUGUAACAUGAGGAUCACCCAUGUGCUGAGGACCGGGAGGUCCUGAA [Same State Tryptophan B GF 19]	13.4
UUUUUCGCGUUUGAUACCAGCAGAGUUGUUCUGGUCUGGUACAUGAGGAUCACCCAUGUCUGCCCUUGGCAGCAAACGGGAGAAG [XTheo #30]	15
UCCUCAUGGCAUGAUACCAGACCUAACAUGAGGAUCACCCAUGUAUCAGGCAAUUGUUACGUCCCUUGGCAGCAUGUAUGCCGAC [Theo B SS t4]	91.1
AACAUGAGGAUCACCCAUGUCCCAUGUGAACGAGGACCGGUACGGCCGCCACUCGACCGAGGCGGCACAUGAGGAUCACCCGCAU [whbob_SS_trypto A_2s14]	481
GGUUAACAUGAGGAUCACCCAUGUCUUGAUACCAGUCGUUAUCUUGACCCUUGGCAGCAAGAUGACCGUUAGCAGCCGUCUUCUC [theeternabot_sameState_MS2_Theo_A_45]	16.6
GUGUACAUGAGGAUCACCCAUGUCGAGUUACGAGGACCGGUACGGCCGCCACUCGGCGGCUCGACACGGAUAGCGAUGCGUUGCU [#18 Exclusion Tryptophan A]	49.5
AAUAAUAAGGCGGCCGCCACUAAACAUGAGGAUCACCCAUGUCUCGAGCGCUUGCAUUUGGGAAGUAGGACCGGGCCAAUAAUAA [Exclusion - Tryptophan B (Freestyle 4)]	28.8
ACAUGUUGGUGGUAUCUACGAAGGCGGAAACGAGGACCGGUACGGCCGCCACUCGGCGACAUGAGGAUCACCCAUGUGGUUAAAA [Exclusion - Tryptophan A (Freestyle 5)]	96.9
GAUUCGCAGUCGGCCGCCACUAACAUGAGCUGCUAGUUAUUAUCACAUGAGGAUCACCCAUGUCUUAGGACCGGGACAACCUGUU [theeternabot_sameState_MS2_Trp_B_26]	79.1
UGGUACAUGAGGAUCACCCAUGUUCCAGAUACCAGUGUCCCGCUGCACCCUUGGCAGCUGGUGGUACAUGAGGAUCACCCAUGUG [Exclusion Theophylline A GF11]	42.7
AGCCACUCGAGUGAUCCUCACGAGUGGCUACGAGGACCGGUACGGCCGCCACUCGAAUUAACAUGAGGAUCACCCAUGUAAUAAU [Brourdmod03]	188
AAAAUCCUACCUGAGGAUCACCCGGGUGAAGGAGCGCCCGAAAGGGCAGGUAGGUCGCACCUGAGGAUCACCCUGGUAAACCUAA [ArgEX 23 #DoubleMS2 #OpenEnded]	183
AAAAUAAUGGCGGCCGCCACUAACUCAUAUACAUCAUGUACAUGAGGAUCACCCAUGUAGGUGUAUAGGACCGGGCCAUAAUUAA [39MS split4]	22.2
AGAUUCGACACGGCCGCCACUUGUGGUGGAUUAUCCUAUGUCGAACAUGAGGAUCACCCAUGUACAAGGACCGGGUGUUGAGUCU [XTryp B #21]	365
GCUAGCCGAAAGGCUAGCAGCGCUACAGAAGGAGCGUGCGAAAGCACAGGUAGGUCGCUGAACAUGAGCAUCAGCCAUGUUGCGC [SSAA - Alter Amptam #2 V2+NP]	18.5
ACCUCAAUGGAUGAUACCAGCUCAAGGACGAACAUGAGGAUCACCCAUGUGACGUGGUGUAGCCCUUGGCAGCAUACUGACACCU [theeternabot_sameState_MS2_Theo_B_24]	49

Same assay, conditions: Eterna round: R107; input ligand: theophylline 2 mM

Sequence	apparent KD of MS2 coat protein [nM]
ACUGCUUUAGCGGCCGCCACUACAUGGACACUUACACUUUCUUGUUACAUGAGGAUCACCCAUGUUAGGACCGGGCUUGUACGGA [theeternabot_exclusion_MS2_Trp_B_31]	68.4
AAAAGAGGUGGAAGGAGCGGGAGACAUGAGGAUCACCCAUGUGAAGUUACGAAAGGUUCAGCCCAGGUAGGUCGCCAUGUCGAAA [eefemullin]	58.8
AGAGUCAGACAAAAGUCUGGCUCAGCCGAAGGAGCGUCCGAAAGGACAGGUAGGUCGCGGUUACCUGAGGAUCACCCGGGUUCCU [ArgAS 25 #OpenEnded #AlternativeMS2]	590
UCCUGCAGAGCGGCCGCCACUGUAUUGCGUGAGGAUGACCCAACAUGAGGAUCACCCAUGUUGUUUAGGACCGGGCUUGCCACGA [opmullin%]	15
AGUCUUAAAGGAAGGAGCGCAGUCAUAACAUGAGGAUCACCCAUGUCGAUGUGAGGGUCAUUGCAGGUAGGUCGCCUUACUAAGA [Same State - Arginine B (Freestyle 5)]	30.2
UUGUUGUACGGAAGGAGCGUGUAAGAUUAAGAACAUGAGGAUCACCCAUGUUUUAAGGGAACACAGGUAGGUCGCCGUGUGGUGG [11.Q]	16.4
ACAUUUAACUGAAGGAGCGUGAUAUACAUGAGGAUCACCCAUGUGUCUUUCAUGAAUAAUUCACAGGUAGGUCGCAGACUAAUGA [JR_ExcArginiB_Sub008]	45.4
UUUAUUAUUGACUCGUUUUGGUAUUAAGAACGAGGACCGGUACGGCCGCCACUCGUGAUAUACAUGAGGAUCACCCAUGUUAGCA [JR_Nu_SSTryptoA_Sub021]	18.3
AGUAGCUGCCGAAGGAGCGCCGUGUUCCUACAUGAGGAUCACCCAUGUAGCGUUGGGUUACGGCAGGUAGGUCGCGGCGGAUAGG [Same State - Arginine B / B]	73.8
GCUAGUGGCAGAAGGAGCGACAUUAAAAGUGGUCGAUACAUGAGGAUCACCCAUGUACUAUGUCAGGUAGGUCGCUGCCACUAGC [EAB NP+V+V2 #4 +-Same Structure]	36.6
UCACGGCACUGAAGGAGCGAGUUGACAAACAUGAGGAUCACCCAUGUUAUGGGUUGUUAAUCUCAGGUAGGUCGCAGUUGUCGUG [Same State Arginine B GF 21]	458
AAAGAACAUGAGGAUCACCCAUGUACCGAAGGAGCGGCGAAGAAGCCAGGUAGGUCGCGGAACAUGAAGCGAUUAAGAAUUAAUU	21
AACAUGAGGAUCACCCAUGUCCCUCCCUCCCGAGGACCGGUACGGCCGCCACUCGCCCUCCCUCCCUAAGAAAGAAAGAAGAAGA [Same State - Trypopjan A]	38.5
AAUAAUAACAUGGGUGCACGAGUGGCAUAACGAGGACCGGUACGGCCGCCACUCGAACAUGAGGAUCACCCAUGUAGCCACUCGA [M'-T'-T-MS2-T'' - Design 4]	132
GACCUUAUCUGAAGGAGCGAGGUAAAUAGGGAUAGGAACAUGAGGAUCACCCAUGUGCGGCCUCAGGUAGGUCGCAGAUGAGAUU [Exclusion Arginine B GF28]	179
GCUGUUGCGGUGAGGUAUCCGGCUGUGGAAGGAGCGCGGAAGGCCGCAGGUAGGUCGCCACAUGAGGAUCACCCAUGUCGAUAUA [Aninati]	28.3
GUGGAGACCUCGGCCGCCACUCUCCAUGAGGAUCUCCCAUGUAACAUGAGGAUCACCCAUGUGCUGAGGACCGGGAGGUCCUGAA [Same State Tryptophan B GF 19]	11
AACAUGAGGAUCACCCAUGUCCCAUGUGAACGAGGACCGGUACGGCCGCCACUCGACCGAGGCGGCACAUGAGGAUCACCCGCAU [whbob_SS_trypto A_2s14]	682

— the supplement of paper PMC9170038
